In article PMC3785434:

Experiments:
Experiment in all cases: SEC; HiLoad 16/60 Superdex 75, 50 mM sodium phosphate pH 7.4, 50 µg sample, 0.6 mL/min, calibrated with mass standards; self-association of the free light chain (dimer)
[1] = molecular target: Bence Jones protein from AL-2 patient (human) (UniProt P01701)
[2] = molecular target: recombinant free immunoglobulin lambda light chain of AL amyloidosis patient AL-3 (human) (UniProt P01699)
[3] = molecular target: recombinant free immunoglobulin lambda light chain of AL amyloidosis patient AL-2 (human) (UniProt P01701)
[4] = molecular target: recombinant free immunoglobulin lambda light chain of AL amyloidosis patient AL-1 (human) (UniProt P01699)

## Bence Jones protein from AL-2 patient (from UniProt P01701 20-117) (natural protein)
[1]
  stoichiometry N: 2

## recombinant free immunoglobulin lambda light chain of AL amyloidosis patient AL-3 (from UniProt P01699 20-117)
[2]
  stoichiometry N: 2

## recombinant free immunoglobulin lambda light chain of AL amyloidosis patient AL-2 (from UniProt P01701 20-117)
[3]
  stoichiometry N: 2

## recombinant free immunoglobulin lambda light chain of AL amyloidosis patient AL-1 (from UniProt P01699 20-117)
[4]
  stoichiometry N: 2
